The values below are quoted from earlier work in article PMC4610346.

As a reminder, the Kd is the constant that tells how readily two partners part at equilibrium.

For this data set, the target named is Jun leucine zipper (Homo sapiens) (UniProt P05412).
Chain of Jun leucine zipper (Homo sapiens) (P05412 277-311): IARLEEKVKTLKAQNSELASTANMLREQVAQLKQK

Chain of Fos leucine zipper (P01100 162-196): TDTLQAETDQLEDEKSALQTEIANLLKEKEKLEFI

Turning to “Fos leucine zipper (from UniProt P01100)”, the Kd is 54 nM.
